The numbers were not newly measured in PMC10018202, which cites them from elsewhere.

One data set deals with Cys283 (UniProt position 283, GYILTCPSNLG).
For the next data set, the target named is Cys34 (UniProt position 58, QYLQQCPFEDH). The data set can be described thus: chemical modification (thiol-disulfide exchange with 2,2'-dithiodipyridine, per the title of the cited reference); the article calls it 'spectroscopic measurements'. As to conditions: not stated (the article notes the pKa changes by 1.5 pH units depending on the ionic strength of the buffer).

On to “Creatine kinase (the quoted measurement is most likely on human muscle-type CK; the article's docking target is brain-type CK) (Homo sapiens)”, for which, in the data set with Cys283, the pKa entry is “around 5.7 and ∼5.6”.

For the substance Serum albumin (HSA) (Homo sapiens), the pKa entry with Cys34 was “around 7”.
